The source of these data is patent publication US20250002577A1.

By EC50 is commonly meant the concentration giving half of the maximal effect.

The target of test [1] is LILRB1 and LILRB2 on human primary myeloid cells (monocytes, M0 and M2c macrophages, mDCs, neutrophils). Kind of test: flow cytometry, M2c macrophages, AF647-labelled antibody, mean of two subjects. A general note: Flow cytometry measures light scatter and fluorescence of single cells or particles in a stream.
For test [2] the target is unchanged. Kind of test: flow cytometry, monocytes, AF647-labelled antibody, mean of two subjects.
Test [3] shares this target. In words: flow cytometry, M0 macrophages, AF647-labelled antibody, mean of two subjects.

B1: Comp 1 (anti-LILRB1 antibody) (antibody, human IgG1, kappa, V domains shown)
VH: QVQLKESGPGLVAPSQSLSITCTVSGFSLTNYGVSWVRQPPGKGLEWLGIIWGDGSTNYHSALISRLSISKDNSKSQVFLKLNSLQADDTATYYCAKPNWDTYAMDFWGQGTSVTVSS
VL: DIQMTQTTSSLSASLGDRVTISCRASQDISNFLNWYQQKPDGTVKLLIYCTSKLHSGVPSRFSGSGSETDYSLTISNLEQEDIATYFCQQGNTLPPTFGGGTKLEIIR
In the case of B1, the EC50 in test [1] was determined as 0.0862 µg/mL; in test [2], 0.823 µg/mL; in test [3] it was 0.0937 µg/mL.
